Data taken from ChEMBL document CHEMBL1123043, “Effects of charge, volume, and surface on binding of inhibitor and substrate moieties to acetylcholinesterase” (J Med Chem, 1985).

Tests used:
[1] = substrate: CC(=O)OCCS(C)(=O)=O
Description: (§1) Compound was evaluated for reversible inhibition of hydrolysis acetylcholine by acetylcholinesterase and represented as Km(app) apparent binding constant

[2] = substrate: CS(=O)(=O)CCO
Description: as §1

[3] = substrate: C[S+](C)CCO
Description: as §1

[4] = substrate: C[Si](C)(C)CCO
Description: as §1

[5] = substrate: CC(=O)CCC[N+](C)(C)[O-]
Description: as §1

[6] = substrate: CC(C)(C)CCO
Description: as §1

[7] = substrate: CN(C)C
Description: as §1

[8] = substrate: C[N+](C)(C)CCO
Description: as §1

[9] = substrate: CCCCO
Description: as §1

[10] = substrate: CSCCO
Description: as §1
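Note: apparent binding constant Km(app) for reversible inhibition of acetylcholine hydrolysis catalysed by acetylcholinesterase.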

B1: Choline O-acetyltransferase (Rattus norvegicus), P32738 (protein)
chain: MPILEKAPQKMPVKASSWEELDLPKLPVPPLQQTLATYLQCMQHLVPEEQFRKSQAIVKRFGAPGGLGETLQEKLLERQEKTANWVSEYWLNDMYLNNRLALPVNSSPAVIFARQHFQDTNDQLRFAACLISGVLSYKTLLDSHSLPTDWAKGQLSGQPLCMKQYYRLFSSYRLPGHTQDTLVAQKSSIMPEPEHVIVACCNQFFVLDVVINFRRLSEGDLFTQLRKIVKMASNEDERLPPIGLLTSDGRSEWAKARTVLLKDSTNRDSLDMIERCICLVCLDGPGTGELSDTHRALQLLHGGGCSLNGANRWYDKSLQFVVGRDGTCGVVCEHSPFDGIVLVQCTEHLLKHMMTSNKKLVRADSVSELPAPRRLRLKCSPETQGHLASSAEKLQRIVKNLDFIVYKFDNYGKTFIKKQKYSPDGFIQVALQLAYYRLYQRLVPTYESASIRRFQEGRVDNIRSATPEALAFVQAMTDHKAAMPASEKLQLLQTAMQAHKQYTVMAITGMAIDNHLLALRELARDLCKEPPEMFMDETYLMSNRFVLSTSQVPTTMEMFCCYGPVVPNGNGACYNPQPEAITFCISSFHSCKETSSVEFAEAVGASLVDMRDLCSSRQPADSKPPAPKEKARGPSQAKQS
Work on B1 yielded a Km [1] of 6.2 mM, a Km [2] of 6.2 mM and a Km [3] of 0.33 mM. It also gave a Km [4] of 3.5 mM, a Km [5] of 18 mM and a Km [6] of 5.3 mM. The Km [7] was 18 mM, the Km [8] was 0.33 mM and the Km [9] was 13 mM. The Km [10] was 15 mM.
